Test results: US20250066503A1, “CELL INJURY INDUCING THERAPEUTIC DRUG FOR USE IN CANCER THERAPY” (CHUGAI SEIYAKU KABUSHIKI KAISHA, priority 2016, published 2025)
Changes are numbered by the printed parent chain. Numbers in names are those of the source.

B1: GCH100-G1dh/none-Hi-Kn010G3/L0201-k0 (antibody, V domains shown)
VH: QVQLVQSGAEVKKPGASVTVSCKASGYTFTDYEMHWVRQAPGEGLEWMGAIDGYTPDTAYSEKFKGRVTLTADKSTSTAYMELSSLTSEDTAVYYCTRFYSYTYWGQGTLVTVSS
VL: DIVMTQSPLSLPVTPGEPASISCRSSQPPVHSNRNTYLHWYQQKPGQAPRLLIYKVSNRFSGVPDRFSGSGSGTDFTLKISRVEAEDVGVYYCGQGTQVPYTFGQGTKLEIKR
notes: one-arm
B2: H0610-G1dh/none-Hi-Kn010G3/L0000vk1-k0 (antibody, V domains shown)
VH: B1 VH with T19K, V37I, A40P, E43Q, M48I, Y54K, E62Q
VL: DIQMTQSPSSLSASVGDRVTITCRSSQSLVHSNRNTYLHWYQQKPGKAPKLLIYKVSNRFSGVPSRFSGSGSGTDFTFTISSLQPEDIATYYCGQGTQVPYTFGQGTKVEIK
notes: one-arm
B3: H0610-G1dh/none-Hi-Kn010G3/L0203-k0 (antibody, V domains shown)
VH: B1 VH with T19K, V37I, A40P, E43Q, M48I, Y54K, E62Q
VL: B1 VL with P28S, L38I
notes: one-arm
B4: H0610-G1dh/none-Hi-Kn010G3/L0204-k0 (antibody, V domains shown)
VH: B1 VH with T19K, V37I, A40P, E43Q, M48I, Y54K, E62Q
VL: B1 VL with P28S, S61R
notes: one-arm
B5: H0610-G1dh/none-Hi-Kn010G3/L0011-k0 (antibody, V domains shown)
VH: B1 VH with T19K, V37I, A40P, E43Q, M48I, Y54K, E62Q
VL: B1 VL with P29L
notes: one-arm
B6: H0610-G1dh/none-Hi-Kn010G3/L0201-k0 (antibody, V domains shown)
VH: B1 VH with T19K, V37I, A40P, E43Q, M48I, Y54K, E62Q
VL: B1 VL
notes: one-arm
B7: H0610-G1dh/none-Hi-Kn010G3/L0208-k0 (antibody, V domains shown)
VH: B1 VH with T19K, V37I, A40P, E43Q, M48I, Y54K, E62Q
VL: B1 VL with P28S, S61W, G94Y
notes: one-arm
B8: H0610-G1dh/none-Hi-Kn010G3/L0212-k0 (antibody, V domains shown)
VH: B1 VH with T19K, V37I, A40P, E43Q, M48I, Y54K, E62Q
VL: B1 VL with S25P, P28S, G94Y
notes: one-arm
B9: H0610-G1dh/none-Hi-Kn010G3/L0211-k0 (antibody, V domains shown)
VH: B1 VH with T19K, V37I, A40P, E43Q, M48I, Y54K, E62Q
VL: B1 VL with G94Y
notes: one-arm
B10: H0610-G1dh/none-Hi-Kn010G3/L0222-k0 (antibody, V domains shown)
VH: B1 VH with T19K, V37I, A40P, E43Q, M48I, Y54K, E62Q
VL: B1 VL with P28S, L38I, H39Q, G94Y
notes: one-arm
B11: H0610-G1dh/none-Hi-Kn010G3/L0209-k0 (antibody, V domains shown)
VH: B1 VH with T19K, V37I, A40P, E43Q, M48I, Y54K, E62Q
VL: B1 VL with P28S, L38I, G94Y
notes: one-arm
B12: H0610-G1dh/none-Hi-Kn010G3/L0206-k0 (antibody, V domains shown)
VH: B1 VH with T19K, V37I, A40P, E43Q, M48I, Y54K, E62Q
VL: B1 VL with P28S, G94Y
notes: one-arm
B13: TR01H015-E2702GsKsc/GCH019-E2704sEpsc/L0000-k0 (bispecific antibody, human IgG4 S228P, kappa, N297A)
heavy 1: QVQLVESGGGLVQPGRSLRLSCAASGFTFSNAWMHWVRQAPGKGLEWVAQIKGKSNNYATYYAESVKGRFTISRADSKNSIYLQMNSLKTEDTAVYYCRYVHYSASYGVDIWGQGTTVTVSSASTKGPSVFPLAPCSRSTSESTAALGCLVKDYFPEPVTVSWNSGALTSGVHTFPAVLQSSGLYSLSSVVTVPSSSLGTKTYTCNVDHKPSNTKVDKRVESKYGPPCPPCPAPEFRGGPKVFLFPPKPKDTLMISRTPEVTCVVVDVSQEDPEVQFNWYVDGVEVHNAKTKPREEQFASTYRVVSVLTVLHQDWLNGKEYKCKVSNKGLPSSIEKTISKAKGQPREPQVYTLPPSQKEMTKNQVSLTCLVKGFYPSDIAVEWESNGQPENNYKTTPPVLDSDGSFFLYSKLTVDKSRWQEGNVFSCSVMHEALHNRYTQKSLSLSP
heavy 2: QVQLVQSGAEVKKPGASVTVSCKASGYTFTDYEMHWIRQPPGEGLEWIGAIDGKTPDTAYEQKFKGRVTLTADKSTSTAYMELSSLTSEDTAVYYCTRFYSYTYWGQGTLVTVSSASTKGPSVFPLAPCSRSTSESTAALGCLVKDYFPEPVTVSWNSGALTSGVHTFPAVLQSSGLYSLSSVVTVPSSSLGTQTYTCNVDHKPSNTKVDKRVESKYGPPCPPCPAPEFRGGPKVFLFPPKPKDTLMISRTPEVTCVVVDVSQEDPEVQFNWYVDGVEVHNAKTKPREEQFASTYRVVSVLTVLHQDWLNGKEYKCKVSNKGLPSSIEKTISKAKGQPREPQVYTLPPSQEEMTKNQVSLTCLVKGFYPSDIAVEWESNGQPENNYKTTPPVLDSDGSFFLYSKLTVDKSRWQEGNVFSCSVMHEALHNHYTQESLSLSP
light: DIVMTQSPLSLPVTPGEPASISCRSSQSLVHSNRNTYLHWYQQKPGQAPRLLIYKVSNRFSGVPDRFSGSGSGTDFTLKISRVEAEDVGVYYCGQGTQVPYTFGQGTKLEIKRTVAAPSVFIFPPSDEQLKSGTASVVCLLNNFYPREAKVQWKVDNALQSGNSQESVTEQDSKDSTYSLSSTLTLSKADYEKHKVYACEVTHQGLSSPVTKSFNRGEC
notes: common L chain format
B14: CE115HA251-E22Hh/L0000-k0/GL4-E22Hk/H0610-E22L (bispecific antibody, human IgG1, kappa, L234A L235A, N297A)
heavy: QVQLVESGGGVVQPGRSLRLSCAASGFTFSNAWMHWVRQAPGKGLEWVAQIKAKSNNYATYYAESVKGRFTISRDDSKNSLYLQMNSLKTEDTAVYYCRYVHYYYYYGVDAWGQGTTVTVSSASTKGPSVFPLAPSSKSTSGGTAALGCLVKDYFPEPVTVSWNSGALTSGVHTFPAVLQSSGLYSLSSVVTVPSSSLGTQTYICNVNHKPSNTKVDKKVEPKSCDKTHTCPPCPAPEAAGGPSVFLFPPKPKDTLMISRTPEVTCVVVDVSHEDPEVKFNWYVDGVEVHNAKTKPREEQYASTYRVVSVLTVLHQDWLNGKEYKCKVSNKALPAPIEKTISKAKGQPREPQVYTLPPSRCELTKNQVSLSCAVKGFYPSDIAVEWESNGQPENNYKTTPPVLDSDGSFFLVSKLTVDKSRWQQGNVFSCSVMHEALHNHYTQKSLSLSPDYKDDDDK
light: B13 light
chain 1: DIVMTQSPLSLPVTPGEPASISCRSSQSLVHSNRNTYLHWYQQKPGQAPRLLIYKVSNRFSGVPDRFSGSGSGTDFTLKISRVEAEDVGVYYCSQNTHVPPTFGQGTKLEIKSSASTKGPSVFPLAPSSKSTSGGTAALGCLVKDYFPEPVTVSWNSGALTSGVHTFPAVLQSSGLYSLSSVVTVPSSSLGTQTYICNVNHKPSNTKVDKKVEPKSCDKTHTCPPCPAPEAAGGPSVFLFPPKPKDTLMISRTPEVTCVVVDVSHEDPEVKFNWYVDGVEVHNAKTKPREEQYASTYRVVSVLTVLHQDWLNGKEYKCKVSNKALPAPIEKTISKAKGQPREPQVCTLPPSRDELTKNQVSLWCLVKGFYPSDIAVEWESNGQPENNYKTTPPVLDSDGSFFLYSKLTVDKSRWQQGNVFSCSVMHEALHNHYTQKSLSLSPHHHHHHHH
chain 2: QVQLVQSGAEVKKPGASVKVSCKASGYTFTDYEMHWIRQPPGQGLEWIGAIDGKTPDTAYSQKFKGRVTLTADKSTSTAYMELSSLTSEDTAVYYCTRFYSYTYWGQGTLVTVSSASVAAPSVFIFPPSDEQLKSGTASVVCLLNNFYPREAKVQWKVDNALQSGNSQESVTEQDSKDSTYSLSSTLTLSKADYEKHKVYACEVTHQGLSSPVTKSFNRGEC
notes: ERY22 format
B15: CE115HA236-E22Hh/GLS3108-k0/GL4-E22Hk/H0610-E22L (bispecific antibody, human IgG1, kappa, L234A L235A, N297A)
heavy: B14 heavy with Y105A, D110Q
light: B13 light with H39S
chain 1: B14 chain 1
chain 2: B14 chain 2
notes: ERY22 format
B16: TR01H002-E22Hh/GLS3108-k0/GL4-E22Hk/H0610-E22L (bispecific antibody, human IgG1, kappa, L234A L235A, N297A)
heavy: B14 heavy with A59K, T60K, D110Q
light: B13 light with H39S
chain 1: B14 chain 1
chain 2: B14 chain 2
notes: ERY22 format
B17: GPC3_ERY27 (hCE115HA-E22Hh/L0000-k0/GL4-E22Hk/H0000-E22L) (bispecific antibody, human IgG1, kappa, L234A L235A, N297A)
heavy: B14 heavy with Y104G, Y105A
light: B13 light
chain 1: B14 chain 1
chain 2: B14 chain 2 with G53P, P56G
notes: ERY22 format
B18: TR01H015-E22Hh/L0000-k0/GL4-E22Hk/H0610-E22L (bispecific antibody, human IgG1, kappa, L234A L235A, N297A)
heavy: B14 heavy with V11L, A53G, D75A, L81I, Y104S, Y105A, Y106S, A111I
light: B13 light
chain 1: B14 chain 1
chain 2: B14 chain 2
notes: ERY22 format

What was measured:
human GPC3 = target: T1, human GPC3 (human, UniProt P51654 25-563); experiment: SPR
T1 construct: range 25-563; soluble analyte; also called soluble human GPC3; glypican 3

[1] = target: T2, soluble human CD3 epsilon chain (human, UniProt P07766 23-126); experiment: SPR
T2 construct: also called CD3ε
T2 sequence (P07766 23-126 limits assumed): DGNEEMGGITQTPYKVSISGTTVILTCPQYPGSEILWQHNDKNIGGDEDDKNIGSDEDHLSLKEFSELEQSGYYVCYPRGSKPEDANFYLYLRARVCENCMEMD

T1 sequence (P51654 25-563 limits assumed): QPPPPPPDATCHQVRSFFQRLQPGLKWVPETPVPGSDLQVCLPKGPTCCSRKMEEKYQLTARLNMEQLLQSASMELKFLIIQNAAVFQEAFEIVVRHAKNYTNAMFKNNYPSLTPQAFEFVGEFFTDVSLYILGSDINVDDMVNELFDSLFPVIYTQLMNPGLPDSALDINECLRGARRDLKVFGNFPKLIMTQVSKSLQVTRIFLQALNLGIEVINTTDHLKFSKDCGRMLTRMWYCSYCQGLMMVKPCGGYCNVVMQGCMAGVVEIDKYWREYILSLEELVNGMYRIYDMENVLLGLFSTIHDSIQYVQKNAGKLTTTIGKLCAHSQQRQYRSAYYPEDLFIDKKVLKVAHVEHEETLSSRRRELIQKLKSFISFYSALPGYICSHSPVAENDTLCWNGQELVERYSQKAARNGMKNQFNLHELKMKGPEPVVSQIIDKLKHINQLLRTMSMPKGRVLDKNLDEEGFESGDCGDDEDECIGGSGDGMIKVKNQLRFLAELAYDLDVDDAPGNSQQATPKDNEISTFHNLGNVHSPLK

Binder	Kd (human GPC3) [nM]	Kd [1] [nM]
B1	1.37	–
B2	2.16	–
B3	2.11	–
B4	0.727	–
B5	2.76	–
B6	1.13	–
B7	0.53	–
B8	0.994	–
B9	0.647	–
B10	0.00014	–
B11	1.12	–
B12	0.865	–
B13	1.64	29.6
B14	0.236	13.7
B15	0.267	6.08
B16	0.475	2.04
B17	4.28	61.6
B18	0.263	35.7
